Laboratory results as given in patent US20250171536A1.

B1: huAb249 IgA2 (antibody, from another filing, V domains shown)
VH: EVQLVQSGAEVKKPGESLKISCKGSGYRFTTSWIGWVRQMPGKGLEWMGIIYPGDSDTRYSPSFQGQVTISADKSISTAYLQWSSLKASDTAMYYCARHGLGYNGYEGAFDIWGQGTLVTVSS
VL: DIQMTQSPSSLSASVGDRVTITCRASQGIGSALAWYQQKPGKAPKLLIYDASNLETGVPSRFSGSGSGTDFTLTISSLQPEDFATYYCQQLNGYPLTFGQGTRLEIK
B2: huAb249 IgG4 (antibody, from another filing, V domains shown)
VH: B1 VH
VL: B1 VL

Tests used:
[1] = biological target: Human CD117 (c-kit), cell-surface expressed (human) (UniProt P10721); test: cell-based or functional assay
Chain of Human CD117 (c-kit), cell-surface expressed (human) (P10721 26-976 limits assumed): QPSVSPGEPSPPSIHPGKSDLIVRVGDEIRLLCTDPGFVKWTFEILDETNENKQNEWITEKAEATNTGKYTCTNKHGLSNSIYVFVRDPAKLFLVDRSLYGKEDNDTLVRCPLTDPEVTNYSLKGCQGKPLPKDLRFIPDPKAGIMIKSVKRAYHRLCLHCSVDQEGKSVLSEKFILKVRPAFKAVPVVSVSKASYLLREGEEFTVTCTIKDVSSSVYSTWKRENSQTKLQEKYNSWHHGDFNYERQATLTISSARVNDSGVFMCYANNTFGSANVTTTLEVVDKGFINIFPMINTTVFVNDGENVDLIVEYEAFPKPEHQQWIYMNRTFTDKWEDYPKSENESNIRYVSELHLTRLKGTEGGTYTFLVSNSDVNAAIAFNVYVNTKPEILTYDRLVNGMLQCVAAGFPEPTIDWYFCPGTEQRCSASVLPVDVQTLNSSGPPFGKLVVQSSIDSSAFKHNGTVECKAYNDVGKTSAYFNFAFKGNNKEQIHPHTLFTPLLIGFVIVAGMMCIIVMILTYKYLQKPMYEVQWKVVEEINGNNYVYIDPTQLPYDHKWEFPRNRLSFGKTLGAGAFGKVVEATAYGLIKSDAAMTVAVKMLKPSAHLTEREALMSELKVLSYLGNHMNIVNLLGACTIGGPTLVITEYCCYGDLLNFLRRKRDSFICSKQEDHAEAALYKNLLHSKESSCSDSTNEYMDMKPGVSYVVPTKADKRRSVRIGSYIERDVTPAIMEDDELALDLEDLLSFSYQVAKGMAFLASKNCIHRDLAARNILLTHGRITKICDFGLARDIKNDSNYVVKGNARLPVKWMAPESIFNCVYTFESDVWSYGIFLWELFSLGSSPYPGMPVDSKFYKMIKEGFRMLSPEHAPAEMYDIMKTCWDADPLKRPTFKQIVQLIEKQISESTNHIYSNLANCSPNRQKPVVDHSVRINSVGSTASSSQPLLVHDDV

[2] = biological target: N-terminal domain of human CD117, soluble (HuCD117 1-308) (human) (UniProt P10721); test: SPR Biacore 4000, captured antibody, soluble CD117 analyte, 1:1 fit
Chain of N-terminal domain of human CD117, soluble (HuCD117 1-308) (human) (P10721 26-308): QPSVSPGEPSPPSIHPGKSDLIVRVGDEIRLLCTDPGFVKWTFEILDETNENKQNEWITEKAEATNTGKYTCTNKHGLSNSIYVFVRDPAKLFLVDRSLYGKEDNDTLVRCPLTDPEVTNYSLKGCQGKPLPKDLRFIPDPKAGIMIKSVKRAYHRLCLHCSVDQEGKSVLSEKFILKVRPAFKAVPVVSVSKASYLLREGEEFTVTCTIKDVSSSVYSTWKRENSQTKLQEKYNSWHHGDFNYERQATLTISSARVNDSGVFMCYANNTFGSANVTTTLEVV

[3] = biological target: Cyno CD117, soluble (cynoCD117 1-520) (cynomolgus monkey); test: as above
Chain of Cyno CD117, soluble (cynoCD117 1-520) (cynomolgus monkey) (P10721 other isoform, or with tags, fused parts or gaps): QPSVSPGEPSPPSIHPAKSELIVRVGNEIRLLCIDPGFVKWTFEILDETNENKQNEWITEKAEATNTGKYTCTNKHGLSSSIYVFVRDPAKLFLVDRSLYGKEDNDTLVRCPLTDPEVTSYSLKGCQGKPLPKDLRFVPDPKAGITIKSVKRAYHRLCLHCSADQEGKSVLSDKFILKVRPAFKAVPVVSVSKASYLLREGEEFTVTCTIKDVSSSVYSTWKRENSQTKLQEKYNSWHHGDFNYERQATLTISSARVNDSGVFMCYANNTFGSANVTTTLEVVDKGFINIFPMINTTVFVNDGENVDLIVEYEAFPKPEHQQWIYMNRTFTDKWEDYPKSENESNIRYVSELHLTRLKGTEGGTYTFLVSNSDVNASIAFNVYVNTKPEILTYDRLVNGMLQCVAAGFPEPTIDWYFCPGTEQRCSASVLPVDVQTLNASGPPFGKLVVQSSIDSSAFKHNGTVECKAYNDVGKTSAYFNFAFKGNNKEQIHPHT

[4] = biological target: Full length human CD117, soluble (HuCD117 1-524) (human) (UniProt P10721); test: as above
Chain of Full length human CD117, soluble (HuCD117 1-524) (human) (P10721 26-524): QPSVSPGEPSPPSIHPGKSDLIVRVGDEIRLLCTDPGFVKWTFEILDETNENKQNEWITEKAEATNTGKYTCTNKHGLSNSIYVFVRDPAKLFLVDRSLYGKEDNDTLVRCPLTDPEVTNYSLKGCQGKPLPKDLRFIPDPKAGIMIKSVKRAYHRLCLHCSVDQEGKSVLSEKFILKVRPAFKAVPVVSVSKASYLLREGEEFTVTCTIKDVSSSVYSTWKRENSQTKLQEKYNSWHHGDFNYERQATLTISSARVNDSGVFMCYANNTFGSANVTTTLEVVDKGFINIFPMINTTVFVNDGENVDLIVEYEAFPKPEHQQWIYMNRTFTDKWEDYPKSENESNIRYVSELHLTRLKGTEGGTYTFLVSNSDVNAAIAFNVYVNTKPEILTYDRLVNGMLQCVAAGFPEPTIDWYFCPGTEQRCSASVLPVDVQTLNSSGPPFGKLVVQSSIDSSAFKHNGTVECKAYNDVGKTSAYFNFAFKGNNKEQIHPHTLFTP

Row | Binder | EC50 of trogocytosis (ADCT; DILC18 membrane uptake by neutrophils from CD117-transfected 293 cells) [1] [nM] | Normalised uptake (B max) in %, ADCT [1] [%] | Kd [2] [nM] | Kd [3] [nM] | Kd [4] [nM]
1 | B1 | 0.48 | 70.6 | 0.08 | 0.1 | 0.3
2 | B2 |  |  | 0.14 | 0.3 | 0.3
